From patent CN108948199A (BOAOXIN BIOTECHNOLOGY NANJING CO LTD, dated 2018)

Tests used:
重组人CSF1R带his标签的蛋白 = target: T1, 重组人CSF1R带his标签的蛋白 (human, UniProt P07333 20-512); test: ELISA screen of hybridoma supernatant on coated human CSF1R-his
T1 construct: Bought protein used as coating antigen for hybridoma screening; also called 人CSF1R-his; CSF1R-his蛋白抗原; not shown: his tag

生物素标记人CSF1R Fc蛋白 = target: T2, 生物素标记人CSF1R Fc蛋白 (human, UniProt P07333 20-512, biotin-labelled (site not stated)); test: binding assays of Example 2 (capture ELISA with biotin-labelled human CSF1R Fc; flow cytometry on 293F cells expressing human CSF1R), summarised in Table 2
T2 construct: range 20-512; also called CSF1R Fc biotin; 人CSF1R抗原; not shown: human IgG1 Fc tag at the C-terminus
T2 sequence (P07333 20-512 limits assumed): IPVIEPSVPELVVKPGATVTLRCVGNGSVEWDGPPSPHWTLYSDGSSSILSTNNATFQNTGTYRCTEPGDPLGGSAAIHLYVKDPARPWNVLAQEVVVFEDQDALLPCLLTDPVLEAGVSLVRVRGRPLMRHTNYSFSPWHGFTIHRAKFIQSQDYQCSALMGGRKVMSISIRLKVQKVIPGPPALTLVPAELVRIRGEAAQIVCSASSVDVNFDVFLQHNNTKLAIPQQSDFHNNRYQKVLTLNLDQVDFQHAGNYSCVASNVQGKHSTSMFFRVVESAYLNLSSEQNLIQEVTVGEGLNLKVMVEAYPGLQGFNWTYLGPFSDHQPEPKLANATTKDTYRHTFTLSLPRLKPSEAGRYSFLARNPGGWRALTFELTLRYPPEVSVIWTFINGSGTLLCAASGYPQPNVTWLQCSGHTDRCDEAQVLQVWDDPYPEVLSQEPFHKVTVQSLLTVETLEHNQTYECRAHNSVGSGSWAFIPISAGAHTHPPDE

T1 sequence (P07333 20-512 limits assumed): as above

B1: 1G6 抗人CSF-1R小鼠单克隆抗体 (antibody, V domains shown)
VH: QIQLVQSGPELKKPGETVKISCKASGYTFIIYGMNWVKQTPGRGLKWMGWINTYTGEPTYADDFKGRFAFSLETSASTASLQINNLKNEDTATYFCAREVYDGYPSHYAMDYWGQGTSVTVSS
VL: DIVMTQAAPSVPVTPGESVSISCRSSKSLLHSNGNTYLYWFLQRPGQSPQLLIYWMSNLASGVPDRFSGSGSGTAFTLRISRVEAEDVGVYYCLQHLEYPYTFGGGTKLEIK
notes: also called 1G6抗体; 本发明的抗人CSF-1R单克隆抗体
- binding result (重组人CSF1R带his标签的蛋白): binds
- binding result (生物素标记人CSF1R Fc蛋白): binds
